The subject of the series is Saccharomyces cerevisiae. The series can be described thus: protein stability index of tFT-peptide fusion (C-terminal peptide) (PSI (0-1 scale)); higher = more stable (slower turnover). The settings on record: temperature: 30 C. As to the method: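 MPS profiling in S. cerevisiae of the yeast C-terminome library: the last 12 aa of each annotated ORF are fused to the C-terminus of a sfGFP-mCherry timer, after a GGGS linker. Cells are FACS-sorted into 8 mCherry/sfGFP bins and deep-sequenced. PSI runs from 0 (unstable) to 1 (stable); wild type and das1Δ backgrounds, two technical replicates each.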

[1] abbreviates: genetic background: das1 deletion.

The values that follow come from the supplement of paper PMC10724198.

± gives the standard deviation of the averaged measurements.

Regarding AAISFKEAARTD [HYP2 C-terminal 12 aa], the protein stability index stood at 0.725 ± 0.019 under setting [1] and 0.725 ± 0.07 (genetic background: wild type).

AAMLTSENAREI [RRP45 C-terminal 12 aa]: the protein stability index is 0.707 ± 0.01 under setting [1] and 0.676 ± 0.035 (genetic background: wild type).

With AARADRGANFRD [SPT16 C-terminal 12 aa], the protein stability index by setting is: under setting [1], 0.677 ± 0.022; (genetic background: wild type) 0.726 ± 0.012.

In the case of AAVKLSQAKSKL [FOX2 C-terminal 12 aa], the protein stability index is, setting by setting: under setting [1], 0.823 ± 0.019; (genetic background: wild type) 0.752 ± 0.014.

In the case of “ADDDIFVNGFLR [YHL002C-A C-terminal 12 aa]”, the protein stability index is, setting by setting: under setting [1], 0.719 ± 0.02; (genetic background: wild type) 0.7 ± 0.023.

In the case of ADMTKEFERESS [GLN1 C-terminal 12 aa], the protein stability index under setting [1] was 0.724 ± 0.018 and the protein stability index (genetic background: wild type) came to 0.701 ± 0.038.

As to AFKKAQAEKSKK [NOP12 C-terminal 12 aa], the protein stability index under setting [1] came to 0.699 ± 0.054 and the protein stability index (genetic background: wild type) was determined as 0.73 ± 0.085.

AGAAWFFVKLLG [CCC1 C-terminal 12 aa] showed a protein stability index under setting [1] of 0.67 ± 0.017 and a protein stability index (genetic background: wild type) of 0.476 ± 0.045.

With AGHSNTLQVSTV [CDC19 C-terminal 12 aa], the protein stability index is 0.705 ± 0.0082 under setting [1] and 0.687 ± 0.014 (genetic background: wild type).

Consider AILREVQFEVFR [NTA1 C-terminal 12 aa], for which the protein stability index was 0.699 ± 0.019 under setting [1] and 0.7068 ± 0.00076 (genetic background: wild type).

With AIRRGLTKKNEK [GDE1 C-terminal 12 aa], the protein stability index came to 0.72 ± 0.013 under setting [1] and 0.65687 ± 0.00059 (genetic background: wild type).

For AIYPVLSEFRKM [SPT15 C-terminal 12 aa], the protein stability index under setting [1] turned out to be 0.701 ± 0.0082 and the protein stability index (genetic background: wild type) worked out at 0.706 ± 0.074.

On to AKEESSDSENET [CDC123 C-terminal 12 aa], for which the protein stability index runs as follows: under setting [1], 0.6497 ± 0.004; (genetic background: wild type) 0.703 ± 0.091.

For the sequence AKEWDLEDPKSM [TAF9 C-terminal 12 aa], the protein stability index by setting is: under setting [1], 0.7024 ± 0.0067; (genetic background: wild type) 0.726 ± 0.057.

Take AKSEDISCVLII [YPL238C C-terminal 12 aa]: the protein stability index reads like this: under setting [1], 0.711 ± 0.025; (genetic background: wild type) 0.646 ± 0.022.

On to AKYALLEVLKVS [YOR102W C-terminal 12 aa], for which the protein stability index stood at 0.581 ± 0.0095 under setting [1] and 0.187 ± 0.017 (genetic background: wild type).

In the case of AKYSKKKNNKNK [DEG1 C-terminal 12 aa], the protein stability index runs as follows: under setting [1], 0.689 ± 0.043; (genetic background: wild type) 0.668 ± 0.021.

Regarding ALCICCTMDMLF [YBR016W C-terminal 12 aa], the protein stability index runs as follows: under setting [1], 0.6355 ± 0.0054; (genetic background: wild type) 0.645 ± 0.048.

In the case of ALDAELDAYMKG [YRA2 C-terminal 12 aa], the protein stability index is 0.67911 ± 5.2e-05 under setting [1] and 0.7 ± 0.0058 (genetic background: wild type).

Consider ALDAVDDAIILD [GET1 C-terminal 12 aa], for which the protein stability index by setting is: under setting [1], 0.716 ± 0.0098; (genetic background: wild type) 0.659 ± 0.021.

ALLDPSDTLNFM [RDR1 C-terminal 12 aa]: the protein stability index reads like this: under setting [1], 0.697 ± 0.024; (genetic background: wild type) 0.704 ± 0.055.

As for ALNDIAKASYIY [CTK3 C-terminal 12 aa], the protein stability index came out at 0.677 ± 0.034 under setting [1] and 0.648 ± 0.016 (genetic background: wild type).

In turn, ALNTYSSGFEIA [GID10 C-terminal 12 aa] gave a protein stability index under setting [1] of 0.661 ± 0.0013 and a protein stability index (genetic background: wild type) of 0.676 ± 0.02.

Turning to ALSADGIYTIAN [PAU5 C-terminal 12 aa], the protein stability index worked out at 0.71 ± 0.0096 under setting [1] and 0.6966 ± 0.0031 (genetic background: wild type).

Turning to ALVGIFVLAFFN [HPF1 C-terminal 12 aa], the protein stability index was 0.29 ± 0.043 under setting [1] and 0.251 ± 0.0084 (genetic background: wild type).

Take AMFNDIWKNANE [UPS3 C-terminal 12 aa]: the protein stability index is, setting by setting: under setting [1], 0.7263 ± 0.0062; (genetic background: wild type) 0.711 ± 0.015.

ANCNTADCLEDH [COT1 C-terminal 12 aa]: the protein stability index came out at 0.6866 ± 0.0051 under setting [1] and 0.708 ± 0.012 (genetic background: wild type).

For the sequence ANLRAYFGPGFT [BUD6 C-terminal 12 aa], the protein stability index by setting is: under setting [1], 0.719 ± 0.017; (genetic background: wild type) 0.691 ± 0.0094.

Consider AQLLAYLMHKSN [LPL1 C-terminal 12 aa], for which the protein stability index worked out at 0.714 ± 0.013 under setting [1] and 0.252 ± 0.013 (genetic background: wild type).

Consider ASFENETVKANV [RFC3 C-terminal 12 aa], for which the protein stability index came to 0.706 ± 0.019 under setting [1] and 0.704 ± 0.0078 (genetic background: wild type).
